Measurements taken from publication PMC5264654.

What was measured:
[1] = biological target: '3tag' PCNA^S228I (human) (UniProt P12004); assay: SPR; reverse orientation: ~1000 RU biotinylated 3tag-PCNA on an SA chip; GST-PIP fusion as analyte, single cycle kinetics (Cdt1 highest 44.5 μM, p21 highest 27.9 μM); HBS-EP with 1 g/l BSA
[2] = biological target: GST-p21 PIP box fusion (UniProt P38936); assay: SPR; ~1000 RU GST-PIP fusion bound to a CM5 chip (acetate pH 5.5), GST as control lane; His-S-PCNA as analyte, 10 point 2x dilution series from 12 μM; equilibrium of binding, steady state affinity fit; HBS-EP (0.01 M HEPES pH 7.4, 0.15 M NaCl, 3 mM EDTA, 0.0005% IGEPAL) with 1 g/l BSA; Biacore T200
UniProt P38936, sequence (P38936 whole entry, the tested form may be a part): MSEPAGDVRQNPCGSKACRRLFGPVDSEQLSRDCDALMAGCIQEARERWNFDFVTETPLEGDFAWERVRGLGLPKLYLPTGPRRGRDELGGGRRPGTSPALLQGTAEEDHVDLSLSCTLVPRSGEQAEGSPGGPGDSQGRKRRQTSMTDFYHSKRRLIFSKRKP

[3] = biological target: GST-Fen1 PIP box fusion (UniProt P39748); assay: as above
UniProt P39748, sequence (P39748 whole entry, the tested form may be a part): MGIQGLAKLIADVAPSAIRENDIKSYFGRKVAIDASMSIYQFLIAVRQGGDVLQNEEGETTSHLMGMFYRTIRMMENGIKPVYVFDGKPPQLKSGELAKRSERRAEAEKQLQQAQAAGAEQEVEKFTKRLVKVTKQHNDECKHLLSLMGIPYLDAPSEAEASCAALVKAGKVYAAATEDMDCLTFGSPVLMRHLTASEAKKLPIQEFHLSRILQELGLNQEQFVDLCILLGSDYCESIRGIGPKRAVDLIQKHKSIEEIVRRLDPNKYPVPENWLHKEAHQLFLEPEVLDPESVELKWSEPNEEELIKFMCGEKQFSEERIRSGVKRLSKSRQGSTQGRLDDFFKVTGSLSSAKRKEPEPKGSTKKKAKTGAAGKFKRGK

Substance	reduction of the affinity against PCNA^WT [1] [%]	Kd [2] [nM]	Kd [3] [nM]
GST-p21 PIP box fusion (from UniProt P38936 1-164) (domain or fragment)	10		
His-S-tagged PCNA^S228I (from UniProt P12004 1-258) (natural protein)		3700	15000
His-S-tagged PCNA^WT (from UniProt P12004 1-261) (natural protein)		1800	1100
